This is an account of results in the supplement of paper PMC12636428.

The data set concerns Saccharomyces cerevisiae. The data set can be described thus: transcriptional activation domain activity (GFP:mCherry ratio, weighted mean of sorted bins, harmonized to initial dataset scale) (arbitrary fluorescence ratio units); higher = stronger transcriptional activation. Conditions: beta-estradiol 1 µM; induction time 4 h. The procedure, abridged:
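Barcoded tiles were sequenced after cells were sorted into 8 bins by GFP:mCherry ratio. Before sorting, cultures had been diluted 1:5 into SC with 1 uM beta-estradiol and held for 4 hours at 30 °C. The tiles were fused to an estradiol-inducible synthetic transcription factor and integrated at URA3 in yeast diploids carrying a GFP reporter. Activation activity is the read-weighted mean of bin median fluorescence, averaged over barcodes and linearly mapped onto the initial dataset scale, and tiles under 50 reads were left out.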

In the case of “MSSVAAAESKPEKKQKKDKSSKSEKKRLREDDAADAERKHKKSKSLASSEVAA”, the “transcriptional activation domain activity” value worked out at 15100.

In the case of “MSSWDGTQGSSSNGQVRKRRRIALACDSCRARKSRCDGRRPQCSSCAGQGTKC”, the “transcriptional activation domain activity” value worked out at 43400.

In the case of “MSSWVYKYQLMFVFVSKVESGGRIWNVIINRLLICVLLMQMLMILTMGLQYRF”, the “transcriptional activation domain activity” value is 49000.

“MSTAAVNEVTETLAATAISNPTNGAAANEATAASADEGRRLYIGNLAYATTEG”: the “transcriptional activation domain activity” value worked out at 36000.

Take “MSTAGHSRQPDHATVPARSFGGCSTCRRRHIKCDEGRPSCSACRDSGLACGGY”: the “transcriptional activation domain activity” value stood at 53000.

As to “MSTEEQADGAPSSASDAGLKIWSCVTCRRRKVRCDRRDPCSNCVRAAIDCHYP”, the “transcriptional activation domain activity” value came out at 30100.

Consider “MSTEVKAAHAGKARQKAWKPKVKTGCVTCRNRRVKCDEAKPDCRRCVAAGRKC”, for which the “transcriptional activation domain activity” value was 10800.

As to “MSTGVSSFLQYVFLFTPYFIFSYFLAVDCWCFSLPLFCLAIPSIFLFLFLFLL”, the “transcriptional activation domain activity” value was determined as 24900.

Take “MSTLHWNMIFLVFFFWVVDVLFAWIMEVGMMVGVHVAYAYGDCGGPVLFMVPF”: the “transcriptional activation domain activity” value came to 71700.

For the sequence “MSTNERKKQRFVKSIHKEKKNTACCSSTNVIGTSKLSSPVIAVVVVVVVVCWG”, the “transcriptional activation domain activity” value amounted to 45100.

For the sequence “MSTNSPESTGDHTDTERKDMPRKRSKVSRACDACRRKKVRCDAEFLTTLQKVT”, the “transcriptional activation domain activity” value stood at 79400.

Consider “MSTPFLANLLLIIWPTYYLLALSLHRALFQCTLSDFFSFFFFFFFFLFFLPFF”, for which the “transcriptional activation domain activity” value came to 52800.

Consider “MSTPKVVASATRQINAVVVSAGLMQKTVKARVGVQKWNRHIKKHFNRSTNVLV”, for which the “transcriptional activation domain activity” value was found to be 53100.

As for “MSTQGPAKRRGAQATDKPVKRTRVSRACDQCRIAREKCDGAQPTCSTCSTSRR”, the “transcriptional activation domain activity” value came out at 36700.

Regarding “MSTSSIVMCSLFLIVRTSTFLLTFIFPNSLPLMGYRLRVFFVWYVDFYGWIFT”, the “transcriptional activation domain activity” value turned out to be 57600.

With “MSTVPRLRLHLHLHLHLHLRLHLHLQLSTPKPTEDGAEHGTERGTERGTERGT”, the “transcriptional activation domain activity” value is 49700.

Consider “MSTWLLRVFFSTCLYIIIWFFFHSFPFLSFFLPCLCCMFFFLACCLVSLSRVL”, for which the “transcriptional activation domain activity” value is 35200.

As for “MSVFILFVGCFYCMVCLFSPSYMWFFCGVISILFLIFPFLHDFQLYFFFGGGH”, the “transcriptional activation domain activity” value came out at 41700.

Take “MSVLYIEDTFPSCFIKFKELVVCSRLCMMFPFQYQFASLLLYLILLLAYHLFL”: the “transcriptional activation domain activity” value came to 54300.

For “MSVSSPEDVTSEASGPAATAPAHEPLACVNCRSRKLKCDRQKPVCSRCAKAGG”, the “transcriptional activation domain activity” value came out at 46300.

On to “MSVVKEENPDTPGGTTVQDVDNRLRQLIQACSPFHMLKNHNLLVLYLLIVPSA”, for which the “transcriptional activation domain activity” value stood at 53700.

On to “MSVYLFCGLLIFLGCGGSGWRYGFLSFFRLLLGVYVSFRYQHLIYTAWLMWAY”, for which the “transcriptional activation domain activity” value came out at 69200.

Regarding “MSWIVWSGKHIHMSCNFIFIICPNNMKYMLSVFWRWFYKRSVIWKVWIRLFFI”, the “transcriptional activation domain activity” value was 47600.

Consider “MSWLVSISFMFYTFILPFYYYYKHSTTLFIYTYIYISLYIPIWFVYNHPYHLL”, for which the “transcriptional activation domain activity” value stood at 43000.

Regarding “MSWPDRGYYYCLMVISLLSAKLMHLFSHFTALPLILFLLYLPTFLLLDLLVVF”, the “transcriptional activation domain activity” value was found to be 60500.

As for “MSWPFFYLSFSLFFPPLLLDRGLLLLCGFFFLFLYIFLPGILWHLEAWFFLLV”, the “transcriptional activation domain activity” value was 59300.

On to “MSWPFPFFFLLFRLFLSLFRGGCFWVQIFVFIPEYLVYSILFSFFFTVIYLFV”, for which the “transcriptional activation domain activity” value was 40400.

For “MSWQKVHSLFFLYFILPHGGFLFLVIRNIFFFFTYDLVLLWSFKFLLHLYVIF”, the “transcriptional activation domain activity” value was found to be 59800.

Consider “MSWQRVYRGWVVNGPGFGFFGRYYWIIIIRLAVPRRLLTCSCWCFGWLLFFLI”, for which the “transcriptional activation domain activity” value was found to be 65700.

In the case of “MSYCIDFPVISSFPAASFYFIFMGTLQDHLPFSLLVYSTLIPFFFFSFLFLSF”, the “transcriptional activation domain activity” value was found to be 41600.

For “MSYFVFPLLLPSLPRVLPRHSICILHFLLHFRTPPSPNLTHSLLIFLFLLLVR”, the “transcriptional activation domain activity” value stood at 64000.

In the case of “MSYGKRDEDAELGLVKVDRTQVFQEARLFNSSPIQPRKCRILLTKIALLLYTG”, the “transcriptional activation domain activity” value came out at 24100.

With “MSYIRSCLSFSPFFSFLFLFLPFFFLSFLPFSMCFLCKAFECLFVGGIKHMEH”, the “transcriptional activation domain activity” value came out at 37400.

“MSYLQMFTLIEGKFQKQMLFLFFFLLCNLLSFFYIYIYVLLTLIFFTTTSIHL”: the “transcriptional activation domain activity” value is 56700.

Regarding “MTCCLNLFCLLLINLIFFVCACCLLVFSLLAIQNKLPECILLPINIFKMLTIL”, the “transcriptional activation domain activity” value turned out to be 52900.

Turning to “MTCFVCNPFLLCAKVFVFFSVSWWVVLSSLFWGCFLMYVFLLFPIKMFLRFCS”, the “transcriptional activation domain activity” value was 61000.

As for “MTDRCRVRCTKLIIIIKGIFFWVSLVSLLFFFLLILSAFSFFLLLLLYYLFTI”, the “transcriptional activation domain activity” value was 46200.

As to “MTEDEGKPRRKRARLACTACNARRVKCNVTESRPCHNCIAGNVLCETVPSRRG”, the “transcriptional activation domain activity” value was found to be 36100.

Take “MTEPMLFFVLYFIRLLPFSFIFFHFLSFSLSILFFVILFSSSFHPFSSSFFFI”: the “transcriptional activation domain activity” value came out at 53400.

Turning to “MTEQAPTIRTAEKDTEGPAKRRRRPALSCVECRSRKVRCDRGKPCRACTRVRS”, the “transcriptional activation domain activity” value is 26200.

In the case of “MTEQPPAIRIADKDGDGPAKRRRRPALSCAECRNRKVRCDRREPCGSCTRLRS”, the “transcriptional activation domain activity” value stood at 42400.

As to “MTEREPDNEQQPRKRIAVACGRCRKRKIRCSGDPGNGEPCTNCRNANAEPCQF”, the “transcriptional activation domain activity” value was found to be 38700.

As to “MTESHRPNQSLGLDDAAGGRKPAKRKAHRKSRTGCRQCRASRVKCDENKPSCS”, the “transcriptional activation domain activity” value was 41000.

As to “MTFLHLYFSLSSCLLKTCLSFFVPTPQLLHFTSCIFICFIGTGVFFLYFPFLF”, the “transcriptional activation domain activity” value is 65700.

For “MTFLPFSLFAFLFRCLLFFLAIFRLRYALFLFLFFSFLYLYPFYLHILHIVAY”, the “transcriptional activation domain activity” value came out at 52600.

Consider “MTFVSEALITHRIDGGDIGVVNIFSKNKWRSKVYVRILVQICMRWVMMAIYLN”, for which the “transcriptional activation domain activity” value was determined as 55700.

In the case of “MTGFSFLLMTFFFFLFFLFFFFISLFLLFFPLFSSHSLFFRLLAICSGLWCSG”, the “transcriptional activation domain activity” value stood at 60000.

Regarding “MTGIFFFFFLLFLFLQLGIGTVFERLLSFQFPNYILFPILPPLHPSSPPFFTY”, the “transcriptional activation domain activity” value is 38600.

Turning to “MTGRHLWGIGVLFLPLLFFLLDFPFFSFSFLLMCLCEILSIFFWLHFSLGREG”, the “transcriptional activation domain activity” value was determined as 44900.

As for “MTGTTLLPPPFISNDVTNSADSTNIKPSPSSSVDNLNDYLTDINSLAWGVNSL”, the “transcriptional activation domain activity” value came out at 67600.

As for “MTHALNIVTYLYRQHLLEDEHFLDWILRNLGPCPLERLLVWLLLVSLYWRDLI”, the “transcriptional activation domain activity” value came to 49800.

“MTHILGYIHRSCYFLFLRSFLNFDISCCWITLSWLLCRSILYYCRPMVKILSS”: the “transcriptional activation domain activity” value worked out at 66300.

For the sequence “MTIDVIHVTYFTFFFFIIVLIYAHLVIPYILDVELLTYFLNDAFKWNMLNMLF”, the “transcriptional activation domain activity” value came to 50200.

Turning to “MTILVILSILCLFQSYMGGMYSLDAHWVDIGLLRIYCNTLCIKMCQILMQFLL”, the “transcriptional activation domain activity” value came to 22700.

For the sequence “MTISSPYCLFRCVAYGPWQTLSVLFCFFFFLLLFLSPSLHHLFYFLSLDFFSY”, the “transcriptional activation domain activity” value amounted to 55500.

As for “MTKPIIIKINHIFALRHYYLPYFHPYILFVFFSSLFTLRGTMWLILLFFGSFA”, the “transcriptional activation domain activity” value worked out at 50300.

“MTLASLAARRSNCMKRRVGCVVVSQPDRRVISTGYNGTPRGIRNCGEGGCPRC”: the “transcriptional activation domain activity” value is 39100.

As to “MTLCTFFGCLLTAYSPLLSIFFLYIAPNAQYVLLMVASAFFCLLALLLSSVIW”, the “transcriptional activation domain activity” value stood at 55000.

In the case of “MTLGLMAFSEYNFADYACLFLFSSFLLFYLIFPIFSFLLLCVYFFFVSFHLYA”, the “transcriptional activation domain activity” value was 27600.

As for “MTLITIIDLESFIFEDCIDLILFSQFLDSFQHSAVLTAYINWYTNADWWRSIV”, the “transcriptional activation domain activity” value is 66900.

Regarding “MTLLFMWLIVRYILCYVSYYRRYAHRVGTQLPPTYPSFIPKYGTALSYLLAPA”, the “transcriptional activation domain activity” value came to 58700.

Turning to “MTLLLLLLLLLFSYNFTYIYLFFLLLSFHLCVSLYTTFTLNFIFLYTSLYILD”, the “transcriptional activation domain activity” value is 74200.

With “MTLLVGYLGVFFLLFSSPSLLEFFFFVTYRVFVVFFFSSSFFFLGYPVFFFFF”, the “transcriptional activation domain activity” value was determined as 36600.

As for “MTLTFWFFLPLLDILSGLKFEFLPMLVFYFYFFPFASFCRFEALDIWTWILII”, the “transcriptional activation domain activity” value came out at 48100.

Consider “MTLTLHPCAQTQFLTAFYCIYCHLTWRCSLLILINMGLGLIQRYVFPLLTFLF”, for which the “transcriptional activation domain activity” value amounted to 43400.

Regarding “MTLVVMMILPPLASLDCFLLSFFFSLLLSPTFPLVLFFSVYKFFHFSTFPFFV”, the “transcriptional activation domain activity” value is 54800.

“MTMRKSFEYSFSREIYFLFFFLFFSFLFFLSFLSFSLSLFFFFPLHPGLFRLV”: the “transcriptional activation domain activity” value worked out at 54400.

On to “MTNFSVALNVHTQIAYHNAEALRLKCMYNASSLLAKLPPHVLALIFLNHANWF”, for which the “transcriptional activation domain activity” value worked out at 36200.

In the case of “MTNLFSASFLSSSSSLSFFFSLFFLLFQRYLLEERPLTIMAFYLLPFFFSLSL”, the “transcriptional activation domain activity” value was determined as 29800.

Turning to “MTNQPTTQDGPSPVKHRACDECRSRKLACSKEPDGCSRCKKEGIVCHYSAQKQ”, the “transcriptional activation domain activity” value was 28400.

Take “MTNRLHIICHICVFYGYVLMFPAITSYYFILLCILILILHLFIFILAHFYKDR”: the “transcriptional activation domain activity” value came to 37300.

Take “MTNRLHIVCHICVFYGYILMFQAITSYHYFILLCILILILHLLTFILVYLYKD”: the “transcriptional activation domain activity” value turned out to be 38400.

In the case of “MTNRQRVGHKKSRHGCIRCKARRVKCDEQRPCSNCVRHRTPCSLSQEPLAAAL”, the “transcriptional activation domain activity” value stood at 45200.

Turning to “MTPRAQDSSSDDKEDKKDTDRAAIRAAQNRKAQRLYRQRKEARVRELEATVAK”, the “transcriptional activation domain activity” value is 78900.
